# Measured values: paper PMC3384305 (Nucleic Acids Research, 2012)
# Read-outs that look alike come from different tables or passages of the source.
# T1: NHTF (NHTF C-His) (UniProt Q7DDD9 1-106)
# T1 sequence: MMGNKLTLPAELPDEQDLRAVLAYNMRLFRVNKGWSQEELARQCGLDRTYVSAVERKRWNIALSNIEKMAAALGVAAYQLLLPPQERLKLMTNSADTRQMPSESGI
# Assays:
# SEC [1] = target: the molecule itself; assay: SEC
# NHTF (NHTF C-His) [2] = target: T1, NHTF (NHTF C-His); assay: EMSA
# SEC [3] = target: the molecule itself; assay: SEC; remark: listed apart in the source
# NHTF (NHTF C-His) [4] = target: T1, NHTF (NHTF C-His); assay: EMSA; remark: listed apart in the source
Binder,binding result (NHTF (NHTF C-His) [2]),also measured
"C-terminal His6-tagged NHTF transcription factor (natural protein, N. meningitidis MC58) MMGNKLTLPAELPDEQDLRAVLAYNMRLFRVNKGWSQEELARQCGLDRTYVSAVERKRWNIALSNIEKMAAALGVAAYQLLLPPQERLKLMTNSADTRQMPSESGI",–,stoichiometry N (SEC [1]): 2
NHTF 5'UTR fragment 1 (dsDNA) DNA 1: TGTTTCCCAATCTGTCTTGATTTTATCTCTTTCCTC DNA 2: GAGGAAAGAGATAAAATCAAGACAGATTGGGAAACA,no binding,–
NHTF 5'UTR fragment 2 (dsDNA) DNA 1: TTGATGTGTGTGTGTTTGGGTGTGGCTGCCGCCACCC DNA 2: GGGTGGCGGCAGCCACACCCAAACACACACACATCAA,no binding,–
Specific (mutant) 25-mer (dsDNA) DNA 1: TACCCGAAGTAAAATCCGTAACAGC DNA 2: GCTGTTACGGATTTTACTTCGGGTA,no binding,–
"DMP19 (NMB0541), without any tag (natural protein, N. meningitidis MC58, UniProt Q9K0P4 1-165, looked up) MTALTLPEDIRQQEPSALLYTLVSAYLEHTAQTGDESLSCLSDDQHTLTAFCYLDSQVEEGGFVQLIASGYGEYIFRNPLADSLRRWKIKAVPKVLDKAKALYEQHGKTIETLADGGADIPSLRKQFPEFEEWDGAYYEAAEQDLPLLAEHIQSNWETFAHIGQA",–,stoichiometry N (SEC [3]): 2
NHTF 5'UTR fragment 3 (dsDNA) DNA 1: CTTTTTTTTGGCTTTTATGTGAAGTAAAATCCGTAACAGC DNA 2: GCTGTTACGGATTTTACTTCACATAAAAGCCAAAAAAAAG,binds,–
Nonspecific 25-mer (dsDNA) DNA 1: ACCCCTTTTTTTTGGCTTTTATGTG DNA 2: CACATAAAAGCCAAAAAAAAGGGGT,–,binding result (NHTF (NHTF C-His) [4]): no binding
NHTF 5'UTR fragment 4 (dsDNA) DNA 1: AAATGCTTAACTTTAACCATTTATCTGGAAGCAA DNA 2: TTGCTTCCAGATAAATGGTTAAAGTTAAGCATTT,no binding,–
Specific 25-mer (dsDNA) DNA 1: TATGTGAAGTAAAATCCGTAACAGC DNA 2: GCTGTTACGGATTTTACTTCACATA,binds,–
